Test results: patent publication US20160289298A1 (ACCELERON PHARMA, published 2016)
Changes are numbered by the printed parent chain.

B1: GDF11 (ligand, UniProt O95390 299-407, looked up)
chain: NLGLDCDEHSSESRCCRYPLTVDFEAFGWDWIIAPKRYKANYCSGQCEYMFMQKYPHTHLVQQANPRGSAGPCCTPTKMSPINMLYFNDKQQIIYGKIPGMVVDRCGCS
notes: also called BMP11
B2: BMP2 (ligand, UniProt P12643 283-396, looked up)
chain: QAKHKQRKRLKSSCKRHPLYVDFSDVGWNDWIVAPPGYHAFYCHGECPFPLADHLNSTNHAIVQTLVNSVNSKIPKACCVPTELSAISMLYLDENEKVVLKNYQDMVVEGCGCR
B3: activin B (ligand, UniProt P09529 293-407, looked up)
chain: GLECDGRTNLCCRQQFFIDFRLIGWNDWIIAPTGYYGNYCEGSCPAYLAGVPGSASSFHTAVVNQYRMRGLNPGTVNSCCIPTKLSTMSMLYFDDEYNIVKRDVPNMIVEECGCA
B4: BMP10 (ligand, UniProt O95393 317-424, looked up)
chain: NAKGNYCKRTPLYIDFKEIGWDSWIIAPPGYEAYECRGVCNYPLAEHLTPTKHAIIQALVHLKNSQKASKACCVPTKLEPISILYLDKGVVTYKFKYEGMAVSECGCR
B5: BMP9 (ligand, UniProt Q9UK05 320-429, looked up)
chain: SAGAGSHCQKTSLRVNFEDIGWDSWIIAPKEYEAYECKGGCFFPLADDVTPTKHAIVQTLVHLKFPTKVGKACCVPTKLSPISVLYKDDMGVPTLKYHYEGMSVAECGCR
notes: also called GDF2
B6: BMPRII-Fc homodimeric complex (Fc fusion, UniProt Q13873 27-150, looked up)
chain: SQNQERLCAFKDPYQQDLGIGESRISHENGTILCSKGSTCYGLWEKSKGDINLVKQGCWSHIGDPQECHYEECVVTTTPPSIQNGTYRFCCCSTDLCNVNFTENFPPPDTTPLSPPHSFNRDET
notes: also called homodimeric BMPRII-Fc; not shown: linker and Fc portion of the homodimer
B7: single-arm ActRIIB-Fc:Fc heterodimeric protein complex (Fc fusion)
chain 1: GRGEAETRECIYYNANWELERTNQSGLERCEGEQDKRLHCYASWRNSSGTIELVKKGCWLDDFNCYDRQECVATEENPQVYFCCCEGNFCNERFTHLPEAGGPEVTYEPPPTAPTGGGTHTCPPCPAPELLGGPSVFLFPPKPKDTLMISRTPEVTCVVVDVSHEDPEVKFNWYVDGVEVHNAKTKPREEQYNSTYRVVSVLTVLHQDWLNGKEYKCKVSNKALPAPIEKTISKAKGQPREPQVYTLPPSRKEMTKNQVSLTCLVKGFYPSDIAVEWESNGQPENNYKTTPPVLKSDGSFFLYSKLTVDKSRWQQGNVFSCSVMHEALHNHYTQKSLSLSPGK
chain 2: SNTKVDKRVTGGGTHTCPPCPAPELLGGPSVFLFPPKPKDTLMISRTPEVTCVVVDVSHEDPEVKFNWYVDGVEVHNAKTKPREEQYNSTYRVVSVLTVLHQDWLNGKEYKCKVSNKALPAPIEKTISKAKGQPREPQVYTLPPSREEMTKNQVSLTCLVKGFYPSDIAVEWESNGQPENNYDTTPPVLDSDGSFFLYSDLTVDKSRWQQGNVFSCSVMHEALHNHYTQKSLSLSPGK
notes: C-terminal lysine optionally removed; also called single-arm ActRIIB-Fc heterodimeric complex
B8: single-arm ALK3-Fc:Fc heterodimeric protein complex (Fc fusion)
chain 1: GAQNLDSMLHGTGMKSDSDQKKSENGVTLAPEDTLPFLKCYCSGHCPDDAINNTCITNGHCFAIIEEDDQGETTLASGCMKYEGSDFQCKDSPKAQLRRTIECCRTNLCNQYLQPTLPPVVIGPFFDGSIRTGGGTHTCPPCPAPELLGGPSVFLFPPKPKDTLMISRTPEVTCVVVDVSHEDPEVKFNWYVDGVEVHNAKTKPREEQYNSTYRVVSVLTVLHQDWLNGKEYKCKVSNKALPAPIEKTISKAKGQPREPQVYTLPPSREEMTKNQVSLTCLVKGFYPSDIAVEWESNGQPENNYDTTPPVLDSDGSFFLYSDLTVDKSRWQQGNVFSCSVMHEALHNHYTQKSLSLSPG
chain 2: B7 chain 2 with E147K, D183K, D190K, D200K
notes: also called single-arm ALK3-Fc heterodimer
B9: ALK3-Fc homodimeric complex (Fc fusion, UniProt P36894 24-152, looked up)
chain: QNLDSMLHGTGMKSDSDQKKSENGVTLAPEDTLPFLKCYCSGHCPDDAINNTCITNGHCFAIIEEDDQGETTLASGCMKYEGSDFQCKDSPKAQLRRTIECCRTNLCNQYLQPTLPPVVIGPFFDGSIR
notes: also called homodimeric ALK3-Fc; not shown: linker and Fc portion of the homodimer
B10: GDF6 (ligand, UniProt Q6KF10 336-455, looked up)
chain: TAFASRHGKRHGKKSRLRCSKKPLHVNFKELGWDDWIIAPLEYEAYHCEGVCDFPLRSHLEPTNHAIIQTLMNSMDPGSTPPSCCVPTKLTPISILYIDAGNNVVYKQYEDMVVESCGCR
notes: also called BMP13

Tests used:
[1] = molecular target: T1, ActRIIA-Fc homodimeric complex (UniProt P27037 21-135); assay: SPR (Biacore), receptor-Fc captured by anti-Fc antibody, ligand injected
T1 construct: also called homodimeric ActRIIA-Fc; not shown: linker and Fc portion of the homodimer
T1 sequence (P27037 21-135, one chain of several): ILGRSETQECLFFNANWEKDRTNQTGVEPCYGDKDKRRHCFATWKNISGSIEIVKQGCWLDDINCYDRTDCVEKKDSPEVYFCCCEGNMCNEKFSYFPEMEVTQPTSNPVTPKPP

[2] = molecular target: B9; assay: as above
[3] = molecular target: B6; assay: as above
Protocol: (§1) Ligands were injected and allowed to flow over the captured receptor protein.

BMP15 = molecular target: T2, BMP15 (UniProt O95972 268-392); assay: as above
T2 construct: also called GDF9b
T2 sequence (looked up): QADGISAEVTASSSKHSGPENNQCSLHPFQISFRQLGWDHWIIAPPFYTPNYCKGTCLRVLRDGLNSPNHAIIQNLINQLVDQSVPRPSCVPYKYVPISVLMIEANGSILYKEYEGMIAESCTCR
Protocol: as §1

BMP6 = molecular target: T3, BMP6 (UniProt P22004 382-513, limits assumed); assay: as above
T3 sequence (looked up): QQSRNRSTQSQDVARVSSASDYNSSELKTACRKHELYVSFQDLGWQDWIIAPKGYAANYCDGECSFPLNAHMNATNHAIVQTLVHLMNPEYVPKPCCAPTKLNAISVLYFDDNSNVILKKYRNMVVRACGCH
Protocol: as §1

BMP7 = molecular target: T4, BMP7 (UniProt P18075 293-431); assay: as above
T4 construct: also called OP-1
T4 sequence (looked up): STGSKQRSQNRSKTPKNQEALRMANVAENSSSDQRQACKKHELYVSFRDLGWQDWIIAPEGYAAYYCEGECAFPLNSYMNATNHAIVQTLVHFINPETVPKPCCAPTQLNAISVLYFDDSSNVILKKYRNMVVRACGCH
Protocol: as §1

activin A = molecular target: T5, activin A (UniProt P08476 311-426); assay: SPR (Biacore), legend of FIG. 6
T5 sequence (looked up): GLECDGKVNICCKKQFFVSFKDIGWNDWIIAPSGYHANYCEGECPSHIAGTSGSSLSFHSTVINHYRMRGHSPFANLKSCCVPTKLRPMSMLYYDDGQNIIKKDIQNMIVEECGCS
Protocol: as §1

GDF8 = molecular target: T6, GDF8 (UniProt O14793 267-375); assay: SPR (Biacore), legend of FIG. 6
T6 construct: also called myostatin
T6 sequence (looked up): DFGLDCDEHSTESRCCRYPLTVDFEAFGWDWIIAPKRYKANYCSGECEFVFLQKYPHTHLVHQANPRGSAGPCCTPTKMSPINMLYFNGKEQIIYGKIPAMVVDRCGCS
Protocol: as §1

activin B = molecular target: B3; assay: SPR (Biacore), legend of FIG. 6
Protocol: as §1

GDF11 = molecular target: B1; assay: SPR (Biacore), legend of FIG. 6
Protocol: as §1

BMP2 = molecular target: B2; assay: SPR (Biacore), receptor-Fc captured by anti-Fc antibody, ligand injected
BMP5 = molecular target: T7, BMP5 (UniProt P22003 317-454, limits assumed); assay: as above
T7 sequence (looked up): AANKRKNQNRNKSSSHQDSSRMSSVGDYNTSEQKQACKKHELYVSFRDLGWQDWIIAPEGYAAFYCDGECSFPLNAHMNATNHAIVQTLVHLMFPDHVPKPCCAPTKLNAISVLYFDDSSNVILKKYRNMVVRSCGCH

BMP4 = molecular target: T8, BMP4 (UniProt P12644 293-408); assay: as above
T8 sequence (looked up): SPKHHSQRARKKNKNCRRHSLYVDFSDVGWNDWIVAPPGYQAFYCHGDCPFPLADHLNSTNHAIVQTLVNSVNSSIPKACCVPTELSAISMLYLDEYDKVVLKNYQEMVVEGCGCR

Q: Does B1 bind [1]?
A: Result: binds

Q: Does B1 bind [2]?
A: Result: no binding

Q: How did the Kd [3] turn out when B2 was run?
A: The Kd was > 2000 nM.

Q: What does the source list for B3?
A: Kd [3]: 3.8 nM; koff [3]: 0.075 s⁻¹; kon [3]: 2e+07 M⁻¹ s⁻¹

Q: Which results are given for B4?
A: binding result [1]: binds; binding result [2]: no binding; Kd [3]: 0.098 nM; koff [3]: 0.0025 s⁻¹; kon [3]: 2.6e+07 M⁻¹ s⁻¹

Q: B5 was tested. Which Kd [3] did it give?
A: The Kd was 2.1 nM.

Q: And the koff [3]?
A: Its koff is 0.026 s⁻¹.

Q: And the kon [3]?
A: Its kon is 1.2e+07 M⁻¹ s⁻¹.

Q: How did the Kd (BMP15) turn out when B6 was run?
A: Its Kd is 0.28 nM.

Q: What about the koff (BMP15) of the same binder?
A: Its koff is 0.0028 s⁻¹.

Q: What about the kon (BMP15) of the same binder?
A: Its kon is 9.9e+06 M⁻¹ s⁻¹.

Q: What about the Kd (BMP6) of the same binder?
A: The Kd was > 8.9 nM.

Q: And the Kd (BMP7)?
A: The Kd was > 38 nM.

Q: Does B7 bind (activin A)?
A: Result: binds

Q: Does B7 bind (GDF8)?
A: Result: binds

Q: Does B7 bind (activin B)?
A: Result: binds

Q: Does B7 bind (GDF11)?
A: Result: binds

Q: Which results are given for B8?
A: binding result (BMP2): binds; binding result (BMP5): binds; binding result (BMP4): binds

Q: Does B9 bind (BMP5)?
A: Result: binds

Q: Which Kd [3] does the source give for B10 here?
A: Its Kd is > 88 nM.
